Source: US20030022260A1

Target: LexA-DP-1 (pLEX(HIS).DP-1): complete bacterial LexA protein fused to DP-1 from residue 59 to 410 (bacterial; murine) (UniProt Q08639)

For “GAD-E2F-5 (pGAD.E2F-5): entire murine E2F-5 as a hybrid with the activation domain of the yeast GAL4 protein (768-881) (from UniProt P04386)”, the transcriptional activity of the E2F site reporter p4x WT CYC1 in yeast was greater than 6 fold.
